Measurements taken from article PMC13185157.

Target: GFP-LNX1
Assay: flow cytometry on cells; α-GFP-Nb yeast incubated with lysates of HEK293 cells expressing FLAG-tagged partner plus GFP-LNX1 or GFP; washed once; anti-FLAG antibody; percent of positive cells

FLAG-Liprin-α1, sequence (Q13136 whole entry): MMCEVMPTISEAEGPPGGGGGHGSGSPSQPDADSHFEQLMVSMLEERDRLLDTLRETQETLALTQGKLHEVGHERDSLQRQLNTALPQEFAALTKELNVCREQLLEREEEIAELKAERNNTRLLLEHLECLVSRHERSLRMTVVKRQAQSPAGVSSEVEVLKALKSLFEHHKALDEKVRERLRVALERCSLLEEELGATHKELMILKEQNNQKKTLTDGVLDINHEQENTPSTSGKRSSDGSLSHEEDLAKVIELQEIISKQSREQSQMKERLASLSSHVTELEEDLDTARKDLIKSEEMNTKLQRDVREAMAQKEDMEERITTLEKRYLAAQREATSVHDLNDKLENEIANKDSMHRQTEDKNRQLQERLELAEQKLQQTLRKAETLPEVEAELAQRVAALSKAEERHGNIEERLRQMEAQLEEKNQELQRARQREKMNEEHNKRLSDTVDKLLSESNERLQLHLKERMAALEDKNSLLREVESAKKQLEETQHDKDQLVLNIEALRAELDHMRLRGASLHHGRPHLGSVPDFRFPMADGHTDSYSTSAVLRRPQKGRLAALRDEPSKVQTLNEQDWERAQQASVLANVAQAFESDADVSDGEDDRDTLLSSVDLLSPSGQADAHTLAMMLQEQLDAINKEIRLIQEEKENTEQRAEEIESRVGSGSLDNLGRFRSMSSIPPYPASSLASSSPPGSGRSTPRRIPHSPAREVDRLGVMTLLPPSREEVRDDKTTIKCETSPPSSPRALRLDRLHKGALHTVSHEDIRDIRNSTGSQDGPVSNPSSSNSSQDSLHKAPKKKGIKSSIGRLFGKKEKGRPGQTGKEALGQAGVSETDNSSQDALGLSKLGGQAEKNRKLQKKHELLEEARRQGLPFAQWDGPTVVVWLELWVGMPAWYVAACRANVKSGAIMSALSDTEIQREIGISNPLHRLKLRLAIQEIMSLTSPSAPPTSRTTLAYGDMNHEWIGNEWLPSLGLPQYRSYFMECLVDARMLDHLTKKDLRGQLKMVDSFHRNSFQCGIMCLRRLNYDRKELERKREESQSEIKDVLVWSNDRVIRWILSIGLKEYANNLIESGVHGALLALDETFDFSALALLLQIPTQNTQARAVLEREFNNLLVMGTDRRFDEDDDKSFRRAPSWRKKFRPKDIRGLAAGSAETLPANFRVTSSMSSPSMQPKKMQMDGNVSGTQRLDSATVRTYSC
FLAG-ZNF24, sequence (P17028 whole entry): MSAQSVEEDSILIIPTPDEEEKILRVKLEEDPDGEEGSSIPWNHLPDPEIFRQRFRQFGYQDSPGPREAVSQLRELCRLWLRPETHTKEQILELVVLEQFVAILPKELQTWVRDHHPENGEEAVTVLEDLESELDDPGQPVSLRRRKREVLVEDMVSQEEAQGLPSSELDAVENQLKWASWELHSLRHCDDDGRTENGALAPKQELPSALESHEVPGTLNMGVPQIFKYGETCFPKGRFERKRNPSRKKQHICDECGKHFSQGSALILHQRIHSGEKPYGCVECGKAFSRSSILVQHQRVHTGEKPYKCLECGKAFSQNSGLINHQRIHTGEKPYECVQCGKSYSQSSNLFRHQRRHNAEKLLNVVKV
FLAG-NUMB, sequence (Q9QZS3 whole entry): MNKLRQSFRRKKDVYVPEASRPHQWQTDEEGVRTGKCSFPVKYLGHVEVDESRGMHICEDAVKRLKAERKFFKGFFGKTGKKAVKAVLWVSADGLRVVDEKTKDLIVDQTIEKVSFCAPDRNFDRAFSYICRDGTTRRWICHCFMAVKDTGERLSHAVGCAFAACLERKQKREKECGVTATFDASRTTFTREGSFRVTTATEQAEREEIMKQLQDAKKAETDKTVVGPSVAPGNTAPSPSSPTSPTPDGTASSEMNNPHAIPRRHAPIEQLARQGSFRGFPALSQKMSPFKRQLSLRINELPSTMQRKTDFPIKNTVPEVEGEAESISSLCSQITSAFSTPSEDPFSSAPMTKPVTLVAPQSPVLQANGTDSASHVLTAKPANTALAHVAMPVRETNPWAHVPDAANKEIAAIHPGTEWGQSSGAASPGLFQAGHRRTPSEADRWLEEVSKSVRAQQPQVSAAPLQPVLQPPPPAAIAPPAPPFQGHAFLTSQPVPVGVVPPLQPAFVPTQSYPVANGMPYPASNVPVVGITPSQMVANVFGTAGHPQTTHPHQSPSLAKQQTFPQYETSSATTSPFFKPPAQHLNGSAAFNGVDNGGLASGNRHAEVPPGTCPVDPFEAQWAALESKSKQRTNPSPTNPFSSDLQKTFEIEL

Row | Substance | percent of cells positively labelled with anti-FLAG antibody | percent of FLAG positive cells
1 | FLAG-NUMB (from UniProt Q9QZS3 1-653) (natural protein) | 10% | 
2 | FLAG-ZNF24 (from UniProt P17028 1-368) (natural protein) |  | 77%
3 | FLAG-Liprin-α1 (from UniProt Q13136 1-1202) (natural protein) | 30% | 
